For 32 variants, self-cleavage results are on record in the RNAGym collection of RNA variant scans (doi:10.7554/elife.80360).

Sequences and labels used below:
B1: HDV Ribozyme (parent)
chain: GGCCGGCAUGGUCCCAGCCUCCUCGCUGGCGCCGGCUGGGCAACAUUCCGAGGGGACCGUCCCCUCGGUAAUGGCGAAUGGGACCCA

In this data set the parent is B1. The experiment in a line: self-cleavage, relative activity (ratio to wild type); higher = more cleavage; co-transcriptional.
As for GGCCGGCAUGUUCCCAGCCUCCUCGCUGGCGCCGGCUGGGCAACAUUCCGAGGUGACCGUCCCCUCGGUAAUGGCGAAUGGGACCCA, the self-cleavage was determined as 0.422.

As for GGCCGGCAUGUUCCCAGCCUCCUCGCUGGCGCCGGCUGGGCAACAUUCCAAGGGGACCGUCCCCUCGGUAAUGGCGAAUGGGACCCA, the self-cleavage came to 0.415.

In the case of GGCCGGCAUGUUCCCAGCCUCCUCGCUGGCGCCGGCUGGGCAACAUUCCGAGAGGACCGUCCCCUCGGUAAUGGCGAAUGGGACCCA, the self-cleavage was found to be 0.427.

In the case of GGCCGGCAUGUUCCCAGCCUCCUCGCUGGCGCCGGCUGGGCAACAUUCCGAGGGGACCGUCCGCUCGGUAAUGGCGAAUGGGACCCA, the self-cleavage turned out to be 0.248.

Consider GGCCGGCAUGUUCCCAGCCUCCUCGCUGGCGCCGGCUGGGCAACAUUCCGAGGGGACUGUCCCCUCGGUAAUGGCGAAUGGGACCCA, for which the self-cleavage was determined as 0.447.

On to GGCCGGCAUGUUCCCAGCCACCUCGCUGGCGCCGGCUGGGCAACAUUCCGAGGGGACCGUCCCCUCGGUAAUGGCGAAUGGGACCCA, for which the self-cleavage is 0.0252.

GGCCGGCAUGUUCCCAGCCUCCUCGCUGGCGCCGGCUGGGCAACAUUCCGAGGGGACCGUCCCCUCGGUAAUGUCGAAUGGGACCCA: the self-cleavage amounted to 0.1.

Take GGCCGGCAUGUUCCCAGCCUCCUCGCUGGCGCCGGCUGGGCAACAUUCCGAGGGGAACGUCCCCUCGGUAAUGGCGAAUGGGACCCA: the self-cleavage was determined as 0.447.

With GGCCGGCAUGUUCCCAGCCUCCUCGCUGGCGCCGGCUGGGCAACAUUCCGAGGGGACCGUCCCCUCGGUAAUGGCGAAUUGGACCCA, the self-cleavage was determined as 0.113.

In the case of GGCCGGCAUGUUCCCAGCCUCCUCGCUGGCGCCGGCUGGGCAACAUUCCGAGGGGACCGUCCCCUCGGUAAUGGCGAAUCGGACCCA, the self-cleavage stood at 0.

GGCCGGCAUGUUCCCAGCCUCCUCGCUGGCGCCGGCUGGGCAACAUUCCGAGGGGACCGUCCCAUCGGUAAUGGCGAAUGGGACCCA: the self-cleavage came out at 0.256.

For GGCCGGCAUGUUCCCAGCCUCCUCGCUGGCGCCGGCUGGGCAAUAUUCCGAGGGGACCGUCCCCUCGGUAAUGGCGAAUGGGACCCA, the self-cleavage amounted to 0.193.

Take GGCCGGCAUGUUCCCAGCCUCCUCGCUGGCGCCGGCUGGGCAAGAUUCCGAGGGGACCGUCCCCUCGGUAAUGGCGAAUGGGACCCA: the self-cleavage worked out at 0.0723.

Regarding GGCCGGCAUGUUCCCAGCCUCCUCGCUGGCGCCGGCUGGGCAAAAUUCCGAGGGGACCGUCCCCUCGGUAAUGGCGAAUGGGACCCA, the self-cleavage was found to be 0.256.

On to GGCCGGCAUGUUCCCAGCCUCCUCGCUGGCGCCGGCUCGGCAACAUUCCGAGGGGACCGUCCCCUCGGUAAUGGCGAAUGGGACCCA, for which the self-cleavage was determined as 0.

With GGCCGGCAUGUUCCCAGCCUCCACGCUGGCGCCGGCUGGGCAACAUUCCGAGGGGACCGUCCCCUCGGUAAUGGCGAAUGGGACCCA, the self-cleavage was found to be 0.437.

GGCCGGCAUGUUCCCAGCCUCCUCGCUGGCGCCGGCUGGGCAACAUUCCGAGGGGACCGUCCCCUCUGUAAUGGCGAAUGGGACCCA: the self-cleavage turned out to be 0.168.

In the case of GGCCGGCAUGUUCCCAGCCUCCUCGCUGGCGCCGGCUGGGCAACAUUCCGAGGGGACCGUCUCCUCGGUAAUGGCGAAUGGGACCCA, the self-cleavage was 0.403.

For the variant GGCCGGCAUGUUCCCAGCCUCCUCGCUGGCGCCGGCUGGGCAACAUUCCGAGGGGACCGUCCCCUCGGUAAUGGCCAAUGGGACCCA, the self-cleavage was found to be 0.532.

Regarding GGCCGGCAUGUUCCCAGCCUCCUCGCUGGCGCCGGCUGGGCAACAUUCCGAGGGGACCGUCCCCUCGGUAAUGGCGAAUGGGACGCA, the self-cleavage worked out at 0.689.

Regarding GGCCGGCAUGUUCCCAGCCUCCUCGCUGGCGCCGGCUGGGCAACAUUCCGAGGGGACCGUCCCCUCGGUAAUGGCGAAUGGGACACA, the self-cleavage was 0.755.

With GGCCGGCAUGUUCCCAGCCUCCUCGCUGGCGCCGGCUGGGCAACAUUCCGAGGGGACCGUCCCCUCGGUAAUGGCGAAUGCGACCCA, the self-cleavage stood at 0.126.

Regarding GGCCGGCAUGUUCCCAGCCUCCUCGCUGGCGCCUGCUGGGCAACAUUCCGAGGGGACCGUCCCCUCGGUAAUGGCGAAUGGGACCCA, the self-cleavage was determined as 0.0252.

As for GGCCGGCAUGUUCCCAGCCUCCUCGCUGGCGCCGGCUGGGCAACAUUCCGAGGGGACCGUCCCCUUGGUAAUGGCGAAUGGGACCCA, the self-cleavage was determined as 0.249.

Turning to GGCCGGCAUGUUCCCAGCCUCCUCGCUGGCGCCGGCUGGGCAACAUUCCGAGGGGACCGUCCCCUGGGUAAUGGCGAAUGGGACCCA, the self-cleavage was found to be 0.397.

Regarding GGCCGGCAUGUACCCAGCCUCCUCGCUGGCGCCGGCUGGGCAACAUUCCGAGGGGACCGUCCCCUCGGUAAUGGCGAAUGGGACCCA, the self-cleavage was 0.116.

In the case of GGCCGGCAUGUUCCCAGCCUCCUCGCUGGCGCCGGCUGGGCAACAUUCCGAUGGGACCGUCCCCUCGGUAAUGGCGAAUGGGACCCA, the self-cleavage stood at 0.561.

For GGCCGGCAUGUUCCCAGCCUCCUCGCUGGCGCCGGCUGGGCAACAUUUCGAGGGGACCGUCCCCUCGGUAAUGGCGAAUGGGACCCA, the self-cleavage was found to be 0.369.

With GGCCGGCAUGUUCCCAGCCUCCUCGCUGGCGCCGGCUGGGCAACAUUCAGAGGGGACCGUCCCCUCGGUAAUGGCGAAUGGGACCCA, the self-cleavage turned out to be 0.307.

For the variant GGCCGGCAUGUUCCCAGCCUCCUCGCUGGCGCCGGAUGGGCAACAUUCCGAGGGGACCGUCCCCUCGGUAAUGGCGAAUGGGACCCA, the self-cleavage came out at 0.0755.

GGCCGGCAUGUUCCCAGCCUCCUCGCUGGCGCCGGCUGGGCAACAUUCCGAGGGGACCGUCCCCUCGGUAAUGGCGAAUGGUACCCA: the self-cleavage was found to be 0.138.

For GGCCGGCAUGUUCCCAGCCUCCUCGCUGGCGCCGGCUGUGCAACAUUCCGAGGGGACCGUCCCCUCGGUAAUGGCGAAUGGGACCCA, the self-cleavage was found to be 0.0936.
